The source of these data is paper PMC10849647.

For the assay, the target named is pre-translocation ribosomal complex (without L27-tRNA labeling) (UniProt P0AG67). Put plainly: co-sedimentation.

As to “M5, the F410C-Y533C variant of a cysteineless E. coli EF-G (enzyme)”, the ratio of co-sedimented EF-G to ribosomal S1 protein is 0.15 EF-G per S1. To T48E mutant of M5 EF-G (enzyme) belongs 0.22 EF-G per S1; to T48V mutant of M5 EF-G (enzyme), 1 EF-G per S1.
